In EP4768503A1:

Molecular target: amyloid precursor protein (APP) on HEK293-APP stable transfected cells (UniProt P05067)
Test: flow cytometry on HEK293-APP cells, four-parameter fit of MFI

Chain of amyloid precursor protein (APP) on HEK293-APP stable transfected cells (P05067 18-770): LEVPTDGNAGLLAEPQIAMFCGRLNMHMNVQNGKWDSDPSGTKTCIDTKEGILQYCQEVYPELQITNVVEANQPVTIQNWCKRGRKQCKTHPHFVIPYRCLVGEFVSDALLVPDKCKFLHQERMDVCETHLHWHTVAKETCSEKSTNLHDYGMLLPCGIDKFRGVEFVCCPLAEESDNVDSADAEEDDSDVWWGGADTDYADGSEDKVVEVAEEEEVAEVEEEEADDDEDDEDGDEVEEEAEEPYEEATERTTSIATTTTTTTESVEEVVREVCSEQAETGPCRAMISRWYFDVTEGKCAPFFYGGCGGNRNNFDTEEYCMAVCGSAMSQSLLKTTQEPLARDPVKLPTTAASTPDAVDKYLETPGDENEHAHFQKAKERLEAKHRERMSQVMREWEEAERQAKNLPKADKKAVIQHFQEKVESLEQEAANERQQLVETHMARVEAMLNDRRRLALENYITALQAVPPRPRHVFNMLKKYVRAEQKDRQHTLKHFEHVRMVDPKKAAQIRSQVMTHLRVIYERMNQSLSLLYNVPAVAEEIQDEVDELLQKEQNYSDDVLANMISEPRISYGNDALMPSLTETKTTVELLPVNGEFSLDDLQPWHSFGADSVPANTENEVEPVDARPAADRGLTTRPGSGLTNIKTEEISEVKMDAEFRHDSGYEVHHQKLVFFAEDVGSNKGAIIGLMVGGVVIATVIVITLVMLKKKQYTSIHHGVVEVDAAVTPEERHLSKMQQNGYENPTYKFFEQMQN

Substance: Lecanemab (antibody)
- EC50: 6.83 nM
